± gives the standard deviation of the averaged measurements.
Experiment: total protein half-life in vivo (active degradation + dilution); higher = more stable protein
[1] = E. coli NCM3722 delta-clpP delta-lon delta-hslV, growth: N-lim chemostat, doubling time 6 h
[2] = E. coli NCM3722 delta-clpP, growth: N-lim chemostat, doubling time 6 h
[3] = E. coli NCM3722 delta-hslV, growth: N-lim chemostat, doubling time 6 h
[4] = E. coli NCM3722 delta-lon, growth: N-lim chemostat, doubling time 6 h
[5] = E. coli NCM3722 delta-smpB, growth: N-lim chemostat, doubling time 6 h
[6] = wild type E. coli NCM3722, growth: C-lim chemostat, doubling time 3 h
[7] = wild type E. coli NCM3722, growth: C-lim chemostat, doubling time 12 h
[8] = wild type E. coli NCM3722, growth: N-lim chemostat, doubling time 6 h
[9] = wild type E. coli NCM3722, growth: N-lim chemostat, doubling time 12 h
[10] = wild type E. coli NCM3722, growth: P-lim chemostat, doubling time 6 h
[11] = wild type E. coli NCM3722, growth: P-lim chemostat, doubling time 12 h
[12] = wild type E. coli NCM3722, growth: C-lim chemostat, doubling time 6 h

Row | Sequence | total protein half-life in vivo [1] [h] | total protein half-life in vivo [2] [h] | total protein half-life in vivo [3] [h] | total protein half-life in vivo [4] [h] | total protein half-life in vivo [5] [h] | total protein half-life in vivo [6] [h] | total protein half-life in vivo [7] [h] | total protein half-life in vivo [8] [h] | total protein half-life in vivo [9] [h] | total protein half-life in vivo [10] [h] | total protein half-life in vivo [11] [h] | total protein half-life in vivo [12] [h]
1 | MKILLIEDNQRTQEWVTQGLSEAGYVIDAVSDGRDGLYLALKDDYALIILDIMLPGMDGWQILQTLRTAKQTPVICLTARDSVDDRVRGLDSGANDYLVKPFSFSELLARVRAQLRQHHALNSTLEISGLRMDSVSHSVSRDNISITLTRKEFQLLWLLASRAGEIIPRTVIASEIWGINFDSDTNTVDVAIRRLRAKVDDPFPEKLIATIRGMGYSFVAVKK | 5.88 ± 0.19 | 4.67 ± 0.22 | 5.28 ± 1 | 4.77 ± 0.42 | 4.91 ± 0.52 | 2.99 ± 0.052 | 10.4 ± 0.76 | 4.11 ± 0.2 | 7.422 ± 0.042 | 5.64 ± 0.063 | 11.9 ± 0.75 | 
2 | MKSALKKSVVSTSISLILASGMAAFAAHAADDVKLKATKTNVAFSDFTPTEYSTKGKPNIIVLTMDDLGYGQLPFDKGSFDPKTMENREVVDTYKIGIDKAIEAAQKSTPTLLSLMDEGVRFTNGYVAHGVSGPSRAAIMTGRAPARFGVYSNTDAQDGIPLTETFLPELFQNHGYYTAAVGKWHLSKISNVPVPEDKQTRDYHDNFTTFSAEEWQPQNRGFDYFMGFHAAGTAYYNSPSLFKNRERVPAKGYISDQLTDEAIGVVDRAKTLDQPFMLYLAYNAPHLPNDNPAPDQYQKQFNTGSQTADNYYASVYSVDQGVKRILEQLKKNGQYDNTIILFTSDNGAVIDGPLPLNGAQKGYKSQTYPGGTHTPMFMWWKGKLQPGNYDKLISAMDFYPTALDAADISIPKDLKLDGVSLLPWLQDKKQGEPHKNLTWITSYSHWFDEENIPFWDNYHKFVRHQSDDYPHNPNTEDLSQFSYTVRNNDYSLVYTVENNQLGLYKLTDLQQKDNLAAANPQVVKEMQGVVREFIDSSQPPLSEVNQEKFNNIKKALSEAK |  |  |  |  |  | 2.86 ± 0.07 |  | 7.26 | 6.32 | 5 ± 0.63 |  | 5.43 ± 0.41
3 | MIDPKKIEQIARQVHESMPKGIREFGEDVEKKIRQTLQAQLTRLDLVSREEFDVQTQVLLRTREKLALLEQRISELENRSTEIKKQPDPETLPPTL |  | 6.97 ± 0.85 | 6.5 ± 1.2 | 5.8 ± 0.65 | 5.79 ± 0.91 | 3.5 ± 0.19 |  | 4.27 ± 0.63 | 11.5 ± 5.3 | 4.66 ± 1.2 | 10.8 ± 0.66 | 5.53 ± 0.24
4 | MKTIGLLGGMSWESTIPYYRLINEGIKQRLGGLHSAQVLLHSVDFHEIEECQRRGEWDKTGDILAEAALGLQRAGAEGIVLCTNTMHKVADAIESRCTLPFLHIADATGRAITGAGMTRVALLGTRYTMEQDFYRGRLTEQFSINCLIPEADERAKINQIIFEELCLGQFTEASRAYCAQVIARLAEQGAQGVIFGCTEIGLLVPEERSVLPVFDTAAIHAEDAVAFMLS |  | 4.02 ± 0.18 | 4.05 ± 0.27 | 4.84 ± 0.066 | 3.69 ± 0.16 | 2.27 ± 0.064 | 7.096 ± 0.017 | 3.96 ± 0.22 | 6.72 ± 0.36 | 4.25 ± 0.4 | 8.06 ± 0.15 | 4.43 ± 0.24
5 | MSMSTSTEVIAHHWAFAIFLIVAIGLCCLMLVGGWFLGGRARARSKNVPFESGIDSVGSARLRLSAKFYLVAMFFVIFDVEALYLFAWSTSIRESGWVGFVEAAIFIFVLLAGLVYLVRIGALDWTPARSRRERMNPETNSIANRQR [P0AFC3] | 7.01 ± 0.28 |  | 6.15 ± 1.1 |  | 6.317 ± 0.023 | 3.72 ± 0.32 | 13 ± 0.5 | 6.22 ± 0.18 |  | 6.293 ± 0.024 | 14.3 ± 2.1 | 
6 | MTWEYALIGLVVGIIIGAVAMRFGNRKLRQQQALQYELEKNKAELDEYREELVSHFARSAELLDTMAHDYRQLYQHMAKSSSSLLPELSAEANPFRNRLAESEASNDQAPVQMPRDYSEGASGLLRTGAKRD [P0ADW3] | 6.13 ± 0.15 | 5.58 ± 0.45 | 5.63 ± 0.57 | 5.76 ± 0.067 | 5.84 ± 0.37 | 3.33 ± 0.31 | 12.4 ± 2.7 | 5.78 ± 0.092 | 11.7 ± 0.66 | 5.43 ± 0.44 | 12.5 ± 1.1 | 6.4 ± 0.23
7 | MTINDSAISEQGMCEEEQVARIAWFYYHDGLTQSEISDRLGLTRLKVSRLLEKGHQSGIIRVQINSRFEGCLEYETQLRRQFSLQHVRVIPGLADADVGGRLGIGAAHMLMSLLQPQQMLAIGFGEATMNTLQRLSGFISSQQIRLVTLSGGVGSYMTGIGQLNAACSVNIIPAPLRASSADIARTLKNENCVKDVLLAAQAADVAIVGIGAVSQQDDATIIRSGYISQGEQLMIGRKGAVGDILGYFFDAKGDVVTNIKIHNELIGLPLSALKTIPVRVGVAGGENKAEAIAAAMKGGYINALVTDQDTAAAILRS | 5.64 ± 1.1 | 5.69 ± 0.67 | 4.76 ± 0.47 | 4.58 ± 0.45 | 4.6 ± 0.058 | 2.88 ± 0.2 | 7.78 | 4.64 ± 0.19 | 8.2 ± 0.58 | 5.08 |  | 4.551 ± 0.016
